Results reported in PMC12828769.

Target: Human Angiotensin-converting enzyme 2 (ACE2) (human)
Test: MST; Monolith NT.115, standard glass capillaries; ACE2 labelled with NT-647 (NHS ester); ACE2 serially diluted across 16 tubes in 10 mM phosphate buffer pH 7.4, mixed 1:1 with RBDs or RBDdopa's, 15 min at RT; 40-60% MST power; apparent KD

“Native SARS-CoV-2 RBD (Arg319-Phe541) without any mutation (domain or fragment; other documents disagree on this pair)” was tested, and the Kd was 5.4 µM.
